Measured values as given in US20050227296A1, “Method for indentifying integrin antagonists” (The General Hospital Corporation, a Massachusetts …, priority 1988, published 2005).

Biological target: T1, EAiC3b (erythrocytes coated with iC3b) (Homo sapiens, UniProt P01024)
T1 construct: EAiC3b (erythrocytes coated with iC3b) were generated by treating EAC3b with purified human factors H and I; tissue Sigma Chemical Co. (C5-deficient human serum); host or cells: human serum C3 deposited on IgM-coated erythrocytes
Experiment: Erythrocyte binding assay, EAiC3b on immobilized proteins or peptides
Conditions: 37° C., divalent cations
Method: Erythrocytes (E) coated with rabbit anti-E IgM (EA) or C3b (EAC3b) were prepared as described by Dana et al. (J. Immunol. 73:153, 1984). EAiC3b (erythrocytes coated with iC3b) were generated by treating EAC3b with purified human factors H and I, or alternatively prepared from EA using C5-deficient human serum (Sigma Chemical Co., St. Louis, Mo.). EAiC3b cells were washed and stored in isotonic veronal-buffered saline (VBS^2+), pH 7.4, containing 0.15 mM calcium-1 mM magnesium (MgCl2+CaCl2) and 1 mg/ml Soybean Trypsin Inhibitor (STI; Worthington Biochemical Co., Freehold, N.J.) at 1.5×10^8 cells/ml. […]
Immobilization of recombinant proteins and peptides: Purified recombinant A-domain was added to Immulon-2 96-well microtiter plates (Dynatech) overnight. […] Binding of the anti-CD11b mabs to the coated rA-domain was measured by ELISA and read using a plate reader (Molecular Dynamics).
Erythrocyte binding assays: Fluoresceinated EAiC3b, EAC3b or EA were resuspended to 1.5×10^8/ml in buffer A, and added […] to wells containing immobilized proteins or peptides in a total volume of 100 ml. […] Fluorescence was quantified (excitatory wavelength, 490 nm, emission wavelength, 510 nm) using a SLM 8000 fluorometer (SLM Instruments, Urbana, Ill.). […] The effect of temperature was evaluated in the presence of 1 mM MnCl2 at 37° C. and at 4° C.

T1 sequence (P01024 749-1303 limits assumed): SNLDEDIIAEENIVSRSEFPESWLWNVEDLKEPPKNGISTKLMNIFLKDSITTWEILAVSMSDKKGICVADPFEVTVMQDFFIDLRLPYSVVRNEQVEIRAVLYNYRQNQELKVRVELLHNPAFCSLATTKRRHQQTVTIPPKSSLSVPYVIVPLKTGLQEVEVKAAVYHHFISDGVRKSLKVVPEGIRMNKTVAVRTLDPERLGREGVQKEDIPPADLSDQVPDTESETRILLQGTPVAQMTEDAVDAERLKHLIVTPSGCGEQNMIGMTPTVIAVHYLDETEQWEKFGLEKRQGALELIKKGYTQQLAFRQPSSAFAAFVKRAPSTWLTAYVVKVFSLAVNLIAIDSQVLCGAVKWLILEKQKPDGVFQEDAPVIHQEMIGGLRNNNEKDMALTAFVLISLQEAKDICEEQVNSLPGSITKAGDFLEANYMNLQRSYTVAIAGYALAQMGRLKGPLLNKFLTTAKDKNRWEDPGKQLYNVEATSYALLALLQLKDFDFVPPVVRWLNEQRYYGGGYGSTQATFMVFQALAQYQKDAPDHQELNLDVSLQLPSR
T1 sequence (P01024 23-667 partner limits assumed): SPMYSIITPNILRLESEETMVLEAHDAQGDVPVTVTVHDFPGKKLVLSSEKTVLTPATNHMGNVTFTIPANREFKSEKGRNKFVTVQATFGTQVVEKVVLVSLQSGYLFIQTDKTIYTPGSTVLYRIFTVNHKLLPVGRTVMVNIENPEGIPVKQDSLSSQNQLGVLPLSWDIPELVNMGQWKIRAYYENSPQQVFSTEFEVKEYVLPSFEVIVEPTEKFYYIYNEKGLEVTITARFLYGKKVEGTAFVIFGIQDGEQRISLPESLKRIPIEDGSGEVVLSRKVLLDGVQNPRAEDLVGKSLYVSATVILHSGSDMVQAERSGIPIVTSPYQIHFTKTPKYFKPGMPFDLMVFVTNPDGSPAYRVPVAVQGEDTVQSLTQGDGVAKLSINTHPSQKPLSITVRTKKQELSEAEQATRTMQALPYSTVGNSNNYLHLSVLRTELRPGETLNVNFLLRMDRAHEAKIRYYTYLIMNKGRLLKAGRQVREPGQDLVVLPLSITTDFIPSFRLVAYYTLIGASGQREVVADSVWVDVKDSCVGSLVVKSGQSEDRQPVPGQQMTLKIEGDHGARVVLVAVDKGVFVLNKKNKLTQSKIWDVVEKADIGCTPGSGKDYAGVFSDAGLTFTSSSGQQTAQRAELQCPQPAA
T1 sequence (P01024 1321-1663 partner limits assumed): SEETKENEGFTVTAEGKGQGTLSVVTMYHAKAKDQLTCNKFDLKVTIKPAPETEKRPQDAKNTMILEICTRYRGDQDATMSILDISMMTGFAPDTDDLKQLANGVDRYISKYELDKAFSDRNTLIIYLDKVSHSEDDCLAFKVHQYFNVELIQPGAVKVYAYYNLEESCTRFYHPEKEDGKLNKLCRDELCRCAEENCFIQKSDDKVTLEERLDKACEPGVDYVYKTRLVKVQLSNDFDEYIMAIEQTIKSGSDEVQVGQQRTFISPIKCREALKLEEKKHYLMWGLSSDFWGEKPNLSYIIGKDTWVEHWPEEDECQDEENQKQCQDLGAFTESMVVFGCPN

B1: r11aA: recombinant CD11a A domain expressed as GST fusion protein (protein)
chain: GNVDLVFLFDGSMSLQPDEFQKILDFMKDVMKKLSNTSYQFAAVQFSTSYKTEFDFSDYVKRKDPDALLKHVKHMLLLTNTFGAINYVATEVFREELGARPDATKVLIIITDGEATDSGNIDAAKDIIRYIIGIGKHFQTKESQETLHKFASKPASEFVKILDTFEKLKDLFTELQKKIY
direct binding of EAiC3b to immobilized protein or peptide (listed as rA-domain derived from CD11a/CD18): did not bind
direct binding of EAiC3b to immobilized protein or peptide (listed as rCD11a A-domain): lack of binding
